# Data from patent US20260150817A1.
# Target: Spike protein of the COVID-19 Spike-ACE2 Binding Assay Kit (Raybiotech) (SARS-CoV-2) (UniProt P0DTC2)
substance,measurement,value
human SAT Nb-Fc control VH-Ab-8 (HAb8-S) (Fc fusion),IC50,79 pM
